In doi:10.1101/2023.03.02.528060:

How the values were obtained:
[1] = biological target: Rous sarcoma virus integrase (1-286) R244A (Rous sarcoma virus (Prague A)); experiment: SEC
[2] = biological target: Rous sarcoma virus integrase (1-286) R244E (Rous sarcoma virus (Prague A)); experiment: SEC
[3] = biological target: Rous sarcoma virus integrase (1-286) Y246A (Rous sarcoma virus (Prague A)); experiment: SEC
[4] = biological target: Rous sarcoma virus integrase, wt IN (1-278) (Rous sarcoma virus (Prague A)); experiment: cryo-EM structure
[5] = biological target: Rous sarcoma virus integrase, wt full-length IN (1-286) (Rous sarcoma virus (Prague A)); experiment: SEC

Substance: Rous sarcoma virus integrase (1-286) R244A (enzyme)
- stoichiometry N [1]: 2

Substance: Rous sarcoma virus integrase (1-286) R244E (enzyme)
- stoichiometry N [2]: 2

Substance: Rous sarcoma virus integrase (1-286) Y246A (enzyme)
- stoichiometry N [3]: 2

Substance: Rous sarcoma virus integrase, wt IN (1-278) (enzyme)
- stoichiometry N [4]: 8

Substance: Rous sarcoma virus integrase, wt full-length IN (1-286) (enzyme)
- stoichiometry N [5]: 2
